B1: tyrosinase: z-vad-fmk, R402Q tyrosinase cells (protein)
parent chain: MLLAVLYCLLWSFQTSAGHFPRACVSSKNLMEKECCPPWSGDRSPCGQLSGRGSCQNILLSNAPLGPQFPFTGVDDRESWPSVFYNRTCQCSGNFMGFNCGNCKFGFWGPNCTERRLLVRRNIFDLSAPEKDKFFAYLTLAKHTISSDYVIPIGTYGQMKNGSTPMFNDINIYDLFVWMHYYVSMDALLGGSEIWRDIDFAHEAPAFLPWHRLFLLRWEQEIQKLTGDENFTIPYWDWRDAEKCDICTDEYMGGQHPTNPNLLSPASFFSSWQIVCSRLEEYNSHQSLCNGTPEGPLRRNPGNHDKSRTPRLPSSADVEFCLSLTQYESGSMDKAANFSFRNTLEGFASPLTGIADASQSSMHNALHIYMNGTMSQVQGSANDPIFLLHHAFVDSIFEQWLQRHRPLQEVYPEANAPIGHNRESYMVPFIPLYRNGDFFISSKDLGYDYSYLQDSDPDSFQDYIKSYLEQASRIWSWLLGAAMVGAVLTALLAGLVSLLCRHKRKQLPEEKQPLLMEKEDYHSLYQSHL
B2: tyrosinase: z-vad-fmk, N371D R402Q tyrosinase cells (protein)
parent chain: MLLAVLYCLLWSFQTSAGHFPRACVSSKNLMEKECCPPWSGDRSPCGQLSGRGSCQNILLSNAPLGPQFPFTGVDDRESWPSVFYNRTCQCSGNFMGFNCGNCKFGFWGPNCTERRLLVRRNIFDLSAPEKDKFFAYLTLAKHTISSDYVIPIGTYGQMKNGSTPMFNDINIYDLFVWMHYYVSMDALLGGSEIWRDIDFAHEAPAFLPWHRLFLLRWEQEIQKLTGDENFTIPYWDWRDAEKCDICTDEYMGGQHPTNPNLLSPASFFSSWQIVCSRLEEYNSHQSLCNGTPEGPLRRNPGNHDKSRTPRLPSSADVEFCLSLTQYESGSMDKAANFSFRNTLEGFASPLTGIADASQSSMHNALHIYMDGTMSQVQGSANDPIFLLHHAFVDSIFEQWLQRHRPLQEVYPEANAPIGHNRESYMVPFIPLYRNGDFFISSKDLGYDYSYLQDSDPDSFQDYIKSYLEQASRIWSWLLGAAMVGAVLTALLAGLVSLLCRHKRKQLPEEKQPLLMEKEDYHSLYQSHL
B3: tyrosinase: z-vad-fmk (protein)
parent chain: MLLAVLYCLLWSFQTSAGHFPRACVSSKNLMEKECCPPWSGDRSPCGQLSGRGSCQNILLSNAPLGPQFPFTGVDDRESWPSVFYNRTCQCSGNFMGFNCGNCKFGFWGPNCTERRLLVRRNIFDLSAPEKDKFFAYLTLAKHTISSDYVIPIGTYGQMKNGSTPMFNDINIYDLFVWMHYYVSMDALLGGSEIWRDIDFAHEAPAFLPWHRLFLLRWEQEIQKLTGDENFTIPYWDWRDAEKCDICTDEYMGGQHPTNPNLLSPASFFSSWQIVCSRLEEYNSHQSLCNGTPEGPLRRNPGNHDKSRTPRLPSSADVEFCLSLTQYESGSMDKAANFSFRNTLEGFASPLTGIADASQSSMHNALHIYMNGTMSQVQGSANDPIFLLHHAFVDSIFEQWLRRHRPLQEVYPEANAPIGHNRESYMVPFIPLYRNGDFFISSKDLGYDYSYLQDSDPDSFQDYIKSYLEQASRIWSWLLGAAMVGAVLTALLAGLVSLLCRHKRKQLPEEKQPLLMEKEDYHSLYQSHL

Experiments:
[1] = T cell IFN-γ ELISA after acid stripping and re-expression; conditions: glycan gained; control: same cells without z-vad-fmk
[2] = cytosolic fraction SDS-PAGE, anti-flag immunoblot; conditions: glycan gained; control: untreated (cycloheximide only)

Row | Protein | other: MHC class I epitope presentation [1] | degradation_or_half_life [2]
1 | B1 | decreases | –
2 | B2 | no change | –
3 | B3 | – | no change
